Results reported in US20190233512A1 (SUTRO BIOPHARMA, published 2019).

B1: SRP1848-F04 (antibody, V domains shown)
VH: EVQLVESGGGLVQPGGSLRLSCAASGFNISNYSIHWVRQAPGKGLEWVGEIYPIDGITDYADSVKGRFTISADTSKNTAYLQMNSLRAEDTAVYYCARGSWFWRSGYGYYLDYWGQGTLVTVSS
VL: not shown
notes: VH/VL only; Fc-bearing IgG format with trastuzumab LC, HIS/FLAG-tagged, cell-free expressed; constant regions not tied; also called Antibody 39
B2: SRP1848-A04 (antibody, V domains shown)
VH: EVQLVESGGGLVQPGGSLRLSCAASGFNIDQSSIHWVRQAPGKGLEWVGVIYPVDGTTDYADSVKGRFTISADTSKNTAYLQMNSLRAEDTAVYYCARGAWSWRSGYGYYIDYWGQGTLVTVSS
VL: not shown
notes: VH/VL only; Fc-bearing IgG format with trastuzumab LC, HIS/FLAG-tagged, cell-free expressed; constant regions not tied; also called Antibody 3
B3: SRP1848-B05 (antibody, V domains shown)
VH: EVQLVESGGGLVQPGGSLRLSCAASGFNISNYYIHWVRQAPGKGLEWVGGISPIDGYTDYADSMKGRFTISADTSKNTAYLQMSSLRAEDTAVYYCARGSWFWQSGYGYYLDYWGQGTLVTVSS
VL: not shown
notes: VH/VL only; Fc-bearing IgG format with trastuzumab LC, HIS/FLAG-tagged, cell-free expressed; constant regions not tied; also called Antibody 12
B4: SRP1848-B04 (antibody, V domains shown)
VH: EVQLVESGGGLVQPGGSLRLSCAASSFNISNHSIHWVRQAPGKGLEWVGEIYPVDGITDYADSVKGRFTISADTSKNTAYLQMNSLRAEDTAVYYCARGRYSWRAGYSYYLDYWGQGTLVTVSS
VL: not shown
notes: VH/VL only; Fc-bearing IgG format with trastuzumab LC, HIS/FLAG-tagged, cell-free expressed; constant regions not tied; also called Antibody 11
B5: SRP1848-B06 (antibody, V domains shown)
VH: EVQLVESGGGLVQPGGSLRLSCAASGFNISNYYIHWVRQAPGKGLEWVGGITPIDGYTDYADSVKGRFTISADTSKNTAYLQMNSLRAEDTAVYYCARGFWSWPSGYGYYQDYWGQGTLVTVSS
VL: not shown
notes: VH/VL only; Fc-bearing IgG format with trastuzumab LC, HIS/FLAG-tagged, cell-free expressed; constant regions not tied; also called Antibody 13
B6: SRP1848-A06 (antibody, V domains shown)
VH: EVQLVESGGGLVQPGGSLRLSCAASGFNIGNSYIHWVRQAPGKGLEWVGGITPIDGNTDYADSVKGRFTISADTSKNTAYLQMNSLRAEDTAVYYCARGAWSWRSGYGYYIDYWGQGTLVTVSS
VL: not shown
notes: VH/VL only; Fc-bearing IgG format with trastuzumab LC, HIS/FLAG-tagged, cell-free expressed; constant regions not tied; also called Antibody 4
B7: SRP1848-A10 (antibody, V domains shown)
VH: EVQLVESGGGLVQPGGSLRLSCAASGFNIRKYSIHWARQAPGKGLEWVGDIFPIDDITDYADSVKGRFTISADTSKNTAYLQMNSLRAEDTAVYYCARGSWSWPSGHSYYLDYWGQGTLVTVSS
VL: not shown
notes: VH/VL only; Fc-bearing IgG format with trastuzumab LC, HIS/FLAG-tagged, cell-free expressed; constant regions not tied; also called Antibody 8
B8: SRP1848-B03 (antibody, V domains shown)
VH: EVQLVESGGGLVQPGGSLRLSCAASGFNISMKYIHWVRQAPGKGLEWVGGITPIDGMTDYADSVKGRFTISADTSKNTAYLQMNSLRAEDTAVYYCARGSWSWPSGYSYYLDYWGQGTLVTVSS
VL: not shown
notes: VH/VL only; Fc-bearing IgG format with trastuzumab LC, HIS/FLAG-tagged, cell-free expressed; constant regions not tied; also called Antibody 10
B9: SRP1848-A08 (antibody, V domains shown)
VH: EVQLVESGGGLVQPGGSLRLSCAASGSNIRKHSIHWVRQAPGKGLEWVGSIYPNDGTTDYADSVKGRFTISADTSKNTAYLQMNSLRAEDTAVYYCARGSWFWRAGYGYYLDYWGQGTLVTVSS
VL: not shown
notes: VH/VL only; Fc-bearing IgG format with trastuzumab LC, HIS/FLAG-tagged, cell-free expressed; constant regions not tied; also called Antibody 6
B10: SRP1848-D04 (antibody, V domains shown)
VH: EVQLVESGGGLVQPGGSLRLSCAASGFNISHYSIHWVRQAPGKGLEWVGEIYPRDGITDYADSVKGRFTISADTSKNTAYLQMNSLSAEDTAVYYCARGYWFWRSGYGYYLDYWGQGTLVTVSS
VL: not shown
notes: VH/VL only; Fc-bearing IgG format with trastuzumab LC, HIS/FLAG-tagged, cell-free expressed; constant regions not tied; also called Antibody 26
B11: SRP1848-B09 (antibody, V domains shown)
VH: EVQLVESGGGLVQPGGSLRLSCAAGGFNITNYYIHWVRQAPGKGLEWVGGITPVDGYTDYADRVKGRFTISADTSKNTAYLQMNSLRAEDTAVYYCARGAWSWRSGYGYYMDYWGQGTLVTVSS
VL: not shown
notes: VH/VL only; Fc-bearing IgG format with trastuzumab LC, HIS/FLAG-tagged, cell-free expressed; constant regions not tied; also called Antibody 15
B12: SRP1848-E05 (antibody, V domains shown)
VH: EVQLVESGGGLVQPGGSLRVSCAASGFNIGVYYIHWVRQAPGKGLEWVGGITPNDGYTDYADSVKGRFTISADTSKNTAYLQMNSLRAEDTAVYYCARGFWAWRSGYGYYLDYWGQGTLVTVSS
VL: not shown
notes: VH/VL only; Fc-bearing IgG format with trastuzumab LC, HIS/FLAG-tagged, cell-free expressed; constant regions not tied; also called Antibody 34

Experiments:
[1] = molecular target: T1, Cynomolgus folate receptor alpha (cynomolgus monkey, UniProt P15328 25-234 (human entry)); test: FACS, CHO-cFOLR1 cells
T1 construct: Stably expressed on CHO cells (CHO-cFOLR1); also called cynomolgus FOLR1; CHO-cFOLR1

[2] = molecular target: T2, Murine folate receptor alpha (mouse, UniProt P35846 25-232); test: FACS, CHO-mFOLR1 cells
T2 construct: Stably expressed on CHO cells (CHO-mFOLR1); also called mouse FOLR1; CHO-mFOLR1

[3] = molecular target: T3, Human folate receptor alpha (hFOLR1) (human, UniProt P15328 25-234); test: FACS, CHO-hFOLR1 cells
T3 construct: Stably expressed on CHO cells (CHO-hFOLR1) for flow cytometry; endogenous on FOLR1-positive KB and Igrov1 cells in the killing assay; also called human FOLR1; FolRα
Description: CHO cells were transfected to stably express human (CHO-hFOLR1), cynomolgus (CHO-cFOLR1), or mouse (CHO-mFOLR1) target molecule FOLR1 on the cell surface. Parental CHO cells were used as a negative control to determine background binding levels. Parental CHO and stably transfected CHO-hFOLR1, CHO-cFOLR1, and CHO-mFOLR1 cells were cultured in Ham's F-12: high glucose DMEM (50:50) (Corning, Cellgro-Mediatech) supplemented with 10% heat-inactivated fetal bovine serum (Corning, Cellgro-Mediatech), 1% Penicillin/Streptomycin (Corning, Cellgro-Mediatech) and 2 mmol/L-glutamax (Life Technology).
A mixture of fluoresecent-labeled parental CHO cells and unlabeled CHO-hFOLRlcells were prepared as follows. Parental CHO cells were washed twice in PBS and incubated in PBS containing with 1 nM CellTrace™ Oregon Green488® (Life Technologies) at 37° C. for 30 minutes. Labeled parental CHO cells were then washed 2× with Ham's F-12 media and 2× with FACS buffer (PBS with 1% bovine serum albumin). Unlabeled CHO-hFOLR1 cells were similarly washed and prepared. Labeled parental CHO and unlabeled CHO-hFOLR1 cells were combined at 1:1 ratio and seeded at 50 μL per well (200,000 cells per well) in 96 well polypropylene plates. Cells were mixed with 50 μL of test antibodies (i.e., anti-FOLR1 variants) serially diluted in FACS buffer and incubated on ice for 60 mins. Cells were washed with FACS buffer and incubated on ice for 60 mins with 100 μL FACS buffer containing 2.5 μg/mL R-Phycoerythrin-conjugated goat anti-Human IgG (Jackson ImmunoResearch Laboratories, West Grove, Pa.). Cells were washed twice with FACS buffer, fixed in 2% paraformaldehyde in PBS (Santa Cruz Biotechnology; Dallas, Tex.) for 10 mins on ice in the dark, and analyzed using the BD LSR II Flow Cytometer (BD Biosciences; San Jose, Calif.). Data were analyzed using FlowJo® software (FlowJo, LLC; Ashland, Oreg.) to determine mean fluorescence intensities. Binding constants were calculated using the statistical software, GraphPad Prism (GraphPad Software; La Jolla, Calif.) using the nonlinear regression equation, one site-specific binding with Hill slope. Secondary antibody alone was used as a control, in addition to measuring non-specific antibody binding to CHO parental cells.

T1 sequence (P15328 other isoform, or with tags, fused parts or gaps limits assumed): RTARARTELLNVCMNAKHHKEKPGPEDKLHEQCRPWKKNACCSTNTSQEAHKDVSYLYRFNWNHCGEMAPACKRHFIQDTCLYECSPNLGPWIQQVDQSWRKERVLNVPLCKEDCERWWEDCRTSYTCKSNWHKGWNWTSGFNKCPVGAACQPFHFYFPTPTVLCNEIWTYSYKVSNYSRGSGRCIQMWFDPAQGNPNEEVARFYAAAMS
T3 sequence (P15328 25-234 limits assumed): as the sequence (P15328 other isoform, or with tags, fused parts or gaps limits assumed) above, with T2I, R4W, K37R, R117Q, P146A, Y171H counted along it
T2 sequence (P35846 25-232 limits assumed): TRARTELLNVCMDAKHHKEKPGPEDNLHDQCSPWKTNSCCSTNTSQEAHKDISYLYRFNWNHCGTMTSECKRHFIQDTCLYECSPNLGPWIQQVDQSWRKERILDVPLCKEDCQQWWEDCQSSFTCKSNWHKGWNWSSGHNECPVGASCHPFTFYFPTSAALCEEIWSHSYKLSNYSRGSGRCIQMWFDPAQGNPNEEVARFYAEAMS

Binder	Bmax [1]	Bmax [2]	Bmax [3]
B1	26400 MFI	2740 MFI	26900 MFI
B2	23100 MFI	3890 MFI	26800 MFI
B3	21900 MFI	–	24500 MFI
B4	27800 MFI	2190 MFI	27800 MFI
B5	26800 MFI	–	25100 MFI
B6	20200 MFI	2770 MFI	24500 MFI
B7	14800 MFI	10200 MFI	27100 MFI
B8	17200 MFI	2720 MFI	26300 MFI
B9	26200 MFI	3200 MFI	28600 MFI
B10	25700 MFI	–	29300 MFI
B11	25200 MFI	1420 MFI	25200 MFI
B12	28200 MFI	–	27300 MFI
